Values quoted from earlier work as cited in PMC8226686.

Target: insulin receptor (Homo sapiens) (UniProt P06213)
Sequence of UniProt P06213 (P06213 763-1382): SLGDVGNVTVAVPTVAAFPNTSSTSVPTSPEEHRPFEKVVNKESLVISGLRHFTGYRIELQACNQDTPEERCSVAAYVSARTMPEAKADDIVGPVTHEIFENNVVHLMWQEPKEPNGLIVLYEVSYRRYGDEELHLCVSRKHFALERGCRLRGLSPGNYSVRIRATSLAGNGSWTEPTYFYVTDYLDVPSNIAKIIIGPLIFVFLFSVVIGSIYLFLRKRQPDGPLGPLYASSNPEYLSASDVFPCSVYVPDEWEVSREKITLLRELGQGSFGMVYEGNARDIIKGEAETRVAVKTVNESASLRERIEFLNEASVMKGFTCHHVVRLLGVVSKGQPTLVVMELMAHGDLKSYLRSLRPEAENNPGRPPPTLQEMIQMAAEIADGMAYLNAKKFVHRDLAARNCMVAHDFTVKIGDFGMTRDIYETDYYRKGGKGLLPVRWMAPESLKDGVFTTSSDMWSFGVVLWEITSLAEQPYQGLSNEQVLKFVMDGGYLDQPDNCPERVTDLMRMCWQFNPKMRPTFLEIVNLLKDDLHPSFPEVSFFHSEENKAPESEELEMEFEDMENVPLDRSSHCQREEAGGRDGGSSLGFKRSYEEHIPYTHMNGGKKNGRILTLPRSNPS

Sequence of insulin (P01308 90-110): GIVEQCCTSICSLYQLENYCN

Kd: 2.2 nM
Substance: insulin (from UniProt P01308)
